Data published in the supplement of paper PMC12764529.
± gives the half width of the 95% confidence interval.

Key:
[1] = folding stability dG unfold from chymotrypsin proteolysis; higher = more stable
How it was run: (§1)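 Unfolding free energy was derived, per protease or combined, by relating Bayesian-fitted K50 values from sequencing counts to a sequence-predicted unfolded-state K50 and a shared folded-state K50. The underlying digests exposed cysteine-free mini-proteins under 80 residues, in a PA-tagged cDNA display construct, to trypsin and chymotrypsin at 11 threefold-diluted concentrations and to a no-protease condition. A filter kept only designs with AlphaFold2 dimer inter-PAE above 15.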

[2] = folding stability dG unfold (combined trypsin and chymotrypsin); higher = more stable
How it was run: as §1

[3] = folding stability dG unfold from trypsin proteolysis; higher = more stable
How it was run: as §1

Sequence	folding stability dG unfold [1] [kcal/mol]	folding stability dG unfold [2] [kcal/mol]	folding stability dG unfold [3] [kcal/mol]
SAGGSAGGLGWGSFKLPFEFWDPANGMPMRNSINIMVIVIPPPPPKVEVEEDPDNGKKKVTYDDSAGGSAGG [r6_926_TrROS]	3.31 ± 0.084	2.95 ± 0.46	2.67 ± 0.1
SAGGSTITTDVPEARELLEELVKAGIKNIKVTVELDGSTVTLEVPPDELEKLVEEIPPEAKVTLEASSAGGS [r16_636_JUSTAS]	1.44 ± 0.041	1.12 ± 0.062	0.442 ± 0.019
SASLPPGQVRSLPVDVTIETPEGQPRFTEPATLEPPPRLVVDVALPLPPGEVTITIRLPGPGVTLTIERSAG [r14_280_JUSTAS]	1.53 ± 0.16	1.42 ± 0.37	0.562 ± 0.089
SAGGSAGGSAGKKIPKKIIPKINLKVELVKSKIYYDKKKKKIVKIEYEFKITYPNGFKATSAGGSAGGSAGG [r11_890_TrMRF]	1.97 ± 0.11	1.83 ± 0.2	1.44 ± 0.053
SAGGPKLFVEEDPVEDGVVVVVETNADPVALLKALEKLFGRPVKDVRFERLPDGRLIAVARIPKDALSAGGS [r16_605_TrMRF]	2.676 ± 0.016	2.47 ± 0.045	2.05 ± 0.043
SAGGMMYLKLKVKNKNGEEIEVLIEFDEKTGKAYIYNKKTGKKIEMTLEELLKQENIEIEEIEPLPEPSAGG [r13_994_TrROS_Hall]	4.29 ± 0.12	4.07 ± 0.13	2.89 ± 0.12
SAGGSAGGSMVTPDGRLVIEIEVSEEDIEKLKEEARKKLGVKEVKVEVEEKDGKLKVRIVVEPSAGGSAGGS [r12_929_TrROS_Hall]	2.19 ± 0.15	1.77 ± 0.29	0.743 ± 0.092
SMPPLGEETTLLETIELPEKLTVEIRRVTLPNGVPLIEVSKTDPSGNTTPIFRAPGNDPAALAAARAALASA [r9_1069_JUSTAS]	-0.0163 ± 0.47	0.262 ± 0.21	0.438 ± 0.078
SAGGKVSVEVRGNGPGSYVALWLPGPGTVIAREFEDGDRFDDLPEDAEPSRVVFFGYDGVPEEFELGSAGGS [r8_487_TrMRF]	0.487 ± 0.071	0.449 ± 0.043	0.32 ± 0.032
SMPEIKVEKKNGKLTITVPKGAKIKIKIEVNGKKIEKEVEVKEGETVTITIELPPNMPKDVKIKEIEIEKSA [r9_1152_TrROS_Hall]	1.93 ± 0.13	1.88 ± 0.13	1.61 ± 0.066
SANGKEYTFTIEIRVRDPENGQPWTIRITVPIWYDPDDGKLDIDIDVTPTPGMPKEWAERIAKEIIEAISAG [r14_152_TrROS]	3.95 ± 0.048	3.6 ± 0.076	3.04 ± 0.11
SAGGSAGGSAGGKEYKLVKVKVKVEITLPKGSELLKKLGLSEEDVKFEFELEVVVLVKPSAGGSAGGSAGGS [r10_82_TrROS_Hall]	3.93 ± 0.074	3.68 ± 0.23	2.82 ± 0.21
SAGGSAPLPAREFADEIMKKSPGPVEITVVFKEPDEYYVAKITMNPNNGKPQIKVERIPPEDLKKLSAGGSA [r15_156_TrROS]	0.626 ± 0.23	0.467 ± 0.23	0.42 ± 0.065
ATVTITDVSFDPETNTITVTVTVTGPDGTTTTFTATFRIEPAPPPAPPAPVYVVDDDGKVYNLDTGEWKDVS [r1_270_TrROS_Hall]	2.3 ± 0.037	2.21 ± 0.054	2.12 ± 0.048
SAMMTPEERAFVERLRALFAERGGRIEIRFFEEPDRIEILVEEDDPELIREIREELARIPFPISRIVEESAG [r14_284_TrMRF]	3.695 ± 0.012	3.33 ± 0.04	2.434 ± 0.016
SAGKTITVTSTHPDGRTATVTYTTLPDGSFKITSFTWEPWPDGTVTAKITTPDGTVITVNSIDDILKALSAG [r5_618_TrMRF]	3.52 ± 0.05	3.27 ± 0.099	2.4 ± 0.1
SAGGMERKTLTVNVPASVPASELLSLLEGYGDVLLVLGNGEVLHIKRDDAPGLEGLPLSDDDVLELYYSAGG [r13_399_TrMRF]	1.23 ± 0.059	0.802 ± 0.075	-0.696 ± 0.14
SAGGPKVIVTDPNGVKHEFENLSIPELLSSLPKNGTPILKIEIPLFNPELGGEEPLELEFIFPPELFSAGGS [r16_806_TrMRF]	-0.417 ± 0.19	0.107 ± 0.083	0.321 ± 0.017
SAGGSAGGSAGGSFKIKDIEVNPDALKKGNFIQIRIENGWVIHINPNGEIEVVELPPDASAGGSAGGSAGGS [r4_373_TrROS]	1.59 ± 0.072	1.25 ± 0.095	0.356 ± 0.083
SAGGSAGGSAMPLEKVIKNLTSSGSVESLKEKLAKEYGVEKVEVTKDPNSDTYSAKVFLKKPSAGGSAGGSA [r18_275_JUSTAS]	-0.0178 ± 0.31	0.131 ± 0.15	-0.147 ± 0.18
SAGGSAGGSKPVLVKVERKEVEVPLPDGTPGKVFVVKVTVLGENEPLAEKTYLFASEEEAKESSAGGSAGGS [r12_461_TrMRF]	0.761 ± 0.17	0.595 ± 0.13	0.102 ± 0.076

Sequence	folding stability dG unfold [1] [kcal/mol]	folding stability dG unfold [2] [kcal/mol]	folding stability dG unfold [3] [kcal/mol]
SAGGSAGGSMKITKSPSGYYTVTINLPNGTTVEIKVSTSDPNATDEQIIEIAKPKAEEILKKSSAGGSAGGS [r12_642_JUSTAS]	2.87 ± 0.12	2.53 ± 0.14	1.16 ± 0.054
SMVVERDPDGVLRVYASPEEAERIVAELKAAGLDARVEAFDPETGVWVIPVRPVPPAGLEPTPENQALNRVS [r1_78_JUSTAS]	1.23 ± 0.073	0.962 ± 0.071	0.502 ± 0.029
SAMEVKIEKVEVKDGTVRITVTVKVSEEQLEKVKELAEKLKEKGYEVKVVKVEKLEDGTIKVEIEVKPKSAG [r14_354_TrROS_Hall]	2.36 ± 0.17	2.66 ± 0.92	2.7 ± 0.32
SAGGSAGGSAGGMKTLTVTTESLTKEEIIEEIKAMGYPNAKVTVTPSPENPDKYIVNVIESAGGSAGGSAGG [r7_988_JUSTAS]	0.736 ± 0.13	0.404 ± 0.18	0.292 ± 0.091
SAKTIKIEIEVKPEKLEEVLEEIAKALAEKLGLPEDVKEIKIEVTKIEVEKVKVDGKEYVKVKIEIKVESAG [r14_736_TrROS_Hall]	3.97 ± 0.28	3.59 ± 0.32	3.04 ± 0.19
SAGMMKVRIKIEVTRVEYDEETGELKEETRTIEIPIEAESEEEAEELAKKLAEELPEEEVKIVEIEPLSAGG [r19_209_TrROS_Hall]	1.42 ± 0.11	1.22 ± 0.22	1.1 ± 0.096
SAGGSAGGSITIEIPGASSLEEAIEQAEVVVNEIVKKGYPGKPIKVTVILPGTGEAFTFEVPLESAGGSAGG [r6_237_TrMRF]	2.4 ± 0.047	2.19 ± 0.12	2.02 ± 0.11
SAGMETIEVPLPVEEIKEALDAGLSPEEIARLLAEETGEEVEIEVGGRKITITRNEDGELIVRIEVKPDSAG [r5_343_TrROS_Hall]	2.22 ± 0.091	2.36 ± 0.2	2.51 ± 0.085
SAGGSAGGMYTVIEEEFTFPPSNPDVVIEVEYPDLPDSYTITQSTFPEGDTYHVRVTITVPPNLSAGGSAGG [r6_482_JUSTAS]	0.762 ± 0.1	0.605 ± 0.076	0.314 ± 0.089
SALEEEVKKRAEEIAQEIKEKFPNVKEKVVEIELPLPNGTKLKATVTISRSINEKGIEYKIKIEVSEGLSAG [r14_788_JUSTAS]	3.99 ± 0.12	3.68 ± 0.17	3.22 ± 0.081
SAGGGALVLPDPDVPDDLPLVVVDPENGTVTLLHFDRETGRVRARVVRLGDGVPEEEEAVFPVAPDALSAGG [r13_851_TrMRF]	-0.261 ± 0.18	0.078 ± 0.11	0.242 ± 0.11
SIIVEPLPDNTFIAYFPETDSVIEIRVDPSTGKAHAIAELPGEPVEATFDPRKGVLVIELPNGRIVLPLLSA [r9_541_TrMRF]	1.7 ± 0.065	2.01 ± 0.088	2.28 ± 0.051
SEAEVEVEVLPGPDAVVVRVRLPGRDEVVELRVLDPHPGEGRVLVAVSPGDDDTVVVRDLSPEDIKALLASA [r9_1221_TrMRF]	0.973 ± 0.055	1.5 ± 0.056	1.843 ± 0.018
SAGGSAGGSIRRDENGNFRVRIKVRFPGNGRKRTIEIPFDNATLEEIRKQAIDHGIRPIEIIPSAGGSAGGS [r12_792_TrROS]	1.35 ± 0.053	1.24 ± 0.047	0.993 ± 0.052
SAGGSAGGSAGGSGNPVVRVFEFDDYIAVVTFNPGDGSVEVLSVGKVPPAAIPGSPELSSAGGSAGGSAGGS [r4_21_TrMRF]	1.16 ± 0.033	1.17 ± 0.036	1.08 ± 0.024
SAGMEAIRKKAEELAKKGKIFKITLTGPDGIPETKILSPEEFKKFLEEFPDPEAIASVEVEAYEPGKPISAG [r5_957_JUSTAS]	3.78 ± 0.046	3.24 ± 0.1	2.35 ± 0.1
SAGGSAGGSDFKPVLVIELDDKTVLVFELEDGTVLVLAENEIALIPASIPAEHFPEDAKLDLDSAGGSAGGS [r12_594_TrMRF]	1.76 ± 0.052	1.85 ± 0.065	2.04 ± 0.12
SAGGKTIWIPMPPGDPEKFAKNIADEILEEAQKQGENVDVKITIQYPDGQYMRITIDGNGKIDKIVPWSAGG [r13_965_TrROS]	0.652 ± 0.31	0.636 ± 0.31	0.333 ± 0.2
SAGGSAGGSAGMKVEEVPETPVWRFTITRGKKTTIVEVEVPPDEPPDPAEVAAELGYELESAGGSAGGSAGG [r11_1053_JUSTAS]	1.65 ± 0.18	1.89 ± 0.25	1.84 ± 0.075
SAGEKIKEALKKAGVEKVEIVEIKRLKNGKVLIVIRLHPDMSEEQRRRLLKALADALREEFPDVKIVELSAG [r5_101_TrROS_Hall]	4.33 ± 0.051	4.5 ± 0.052	4.79 ± 0.13
SAGSSTPGSEVVRVTSEVSEGESNRTVSYTTYVFEPGGPALRPLSTSTTTVPAAPGVPEGGTKTISLPGSAG [r5_861_JUSTAS]	-0.755 ± 0.2	-0.534 ± 0.11	-0.419 ± 0.064
